Source: publication PMC3616968, “Post-Transcriptional Regulation of the Trypanosome Heat Shock Response by a Zinc Finger Protein”

Molecular target: T1, ZC3H11-119 (Trypanosoma brucei, UniProt Q57W26 1-119)
T1 sequence: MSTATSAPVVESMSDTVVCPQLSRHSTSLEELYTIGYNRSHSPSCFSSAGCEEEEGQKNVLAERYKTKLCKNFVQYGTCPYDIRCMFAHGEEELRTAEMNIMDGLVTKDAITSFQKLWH
Assay: EMSA; limiting probe titration; no binding; 20 mM Tris-HCl pH 8.0, 50 mM NaCl, 10 uM ZnCl2, 0.01% IGEPAL CA-630, 0.1 mg/ml tRNA, 10 ug/ml heparin (legends: 5 ug/ml or 10 mg/ml), room temperature 30 min; 100 pmol protein, 1 pmol RNA
Conditions: protein: recombinant; tags: His10 (called His-tagged)

UUUUUUUUUUUUUUUUUUUUUUU (ssRNA) [U23]
binding result: no binding
